From patent US9176064B2, “Bisubstrate fluorescent probes for protein kinase CK2” (University of Tartu, priority 2012, dated 2015)
Where a SMILES comes first, the peptide text is derived from it. [ ]: non-standard residue; d: D form. The star is where a group is joined. X1 = O=C(CCCCCCCn1cnc2c(Br)c(Br)c(Br)c(Br)c21)*

What was measured:
Test in all cases: Kinase panel residual activity
Format in all cases: biochemical
Details in all cases: compound at 1 micromolar
PRAK = molecular target: T1, PRAK (Homo sapiens, UniProt Q8IW41)
T1 sequence (Q8IW41 1-473): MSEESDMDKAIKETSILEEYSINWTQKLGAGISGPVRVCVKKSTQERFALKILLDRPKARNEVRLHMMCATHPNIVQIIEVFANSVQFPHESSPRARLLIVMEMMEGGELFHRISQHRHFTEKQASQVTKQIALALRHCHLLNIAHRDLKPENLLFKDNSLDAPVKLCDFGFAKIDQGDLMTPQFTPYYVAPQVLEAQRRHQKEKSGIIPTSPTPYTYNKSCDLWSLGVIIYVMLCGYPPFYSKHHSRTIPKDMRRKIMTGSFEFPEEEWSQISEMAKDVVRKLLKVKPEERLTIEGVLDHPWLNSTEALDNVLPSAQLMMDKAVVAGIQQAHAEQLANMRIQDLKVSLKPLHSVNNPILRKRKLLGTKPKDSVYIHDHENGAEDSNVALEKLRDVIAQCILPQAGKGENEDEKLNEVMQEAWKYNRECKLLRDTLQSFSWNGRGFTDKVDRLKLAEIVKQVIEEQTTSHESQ

EPH-B2 = molecular target: T2, EPH-B2 (Homo sapiens, UniProt P29323)
T2 sequence (P29323 19-1055): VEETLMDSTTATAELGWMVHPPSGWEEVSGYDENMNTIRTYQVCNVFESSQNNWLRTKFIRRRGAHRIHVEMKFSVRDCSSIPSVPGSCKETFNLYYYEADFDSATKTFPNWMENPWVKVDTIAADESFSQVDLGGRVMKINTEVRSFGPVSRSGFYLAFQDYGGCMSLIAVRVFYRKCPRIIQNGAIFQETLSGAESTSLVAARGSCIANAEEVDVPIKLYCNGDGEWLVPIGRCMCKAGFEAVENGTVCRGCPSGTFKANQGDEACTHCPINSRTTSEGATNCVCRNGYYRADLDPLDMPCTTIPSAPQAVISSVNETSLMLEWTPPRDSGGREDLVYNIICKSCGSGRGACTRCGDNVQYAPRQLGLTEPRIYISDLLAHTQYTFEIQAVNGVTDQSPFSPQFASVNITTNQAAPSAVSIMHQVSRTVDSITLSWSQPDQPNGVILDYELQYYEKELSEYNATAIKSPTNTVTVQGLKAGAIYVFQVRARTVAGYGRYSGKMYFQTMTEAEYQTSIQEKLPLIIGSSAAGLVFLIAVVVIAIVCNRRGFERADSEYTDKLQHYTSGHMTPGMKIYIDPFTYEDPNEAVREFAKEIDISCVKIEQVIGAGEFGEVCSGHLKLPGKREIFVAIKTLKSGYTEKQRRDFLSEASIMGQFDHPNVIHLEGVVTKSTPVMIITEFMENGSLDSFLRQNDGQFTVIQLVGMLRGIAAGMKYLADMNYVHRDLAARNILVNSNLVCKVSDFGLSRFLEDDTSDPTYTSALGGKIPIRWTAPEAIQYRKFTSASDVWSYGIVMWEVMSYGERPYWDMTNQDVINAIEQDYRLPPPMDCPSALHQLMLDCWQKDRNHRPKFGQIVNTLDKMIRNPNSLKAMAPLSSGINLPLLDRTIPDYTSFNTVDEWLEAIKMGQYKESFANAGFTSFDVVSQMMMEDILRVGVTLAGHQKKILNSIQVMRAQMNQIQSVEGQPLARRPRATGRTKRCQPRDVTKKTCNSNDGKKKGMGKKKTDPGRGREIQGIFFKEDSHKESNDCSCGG

TAK1 = molecular target: T3, TAK1 (Homo sapiens, UniProt O43318)
T3 sequence (O43318 1-303 limits assumed): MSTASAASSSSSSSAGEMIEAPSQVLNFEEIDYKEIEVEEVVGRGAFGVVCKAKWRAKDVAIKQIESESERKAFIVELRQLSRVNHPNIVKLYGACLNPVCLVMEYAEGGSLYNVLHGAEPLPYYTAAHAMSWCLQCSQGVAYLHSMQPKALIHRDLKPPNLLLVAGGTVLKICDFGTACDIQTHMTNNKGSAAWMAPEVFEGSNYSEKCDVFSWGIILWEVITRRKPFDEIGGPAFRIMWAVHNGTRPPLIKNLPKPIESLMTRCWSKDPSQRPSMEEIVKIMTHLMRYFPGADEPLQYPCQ

NUAK1 = molecular target: T4, NUAK1 (Homo sapiens, UniProt O60285)
T4 sequence (O60285 1-661): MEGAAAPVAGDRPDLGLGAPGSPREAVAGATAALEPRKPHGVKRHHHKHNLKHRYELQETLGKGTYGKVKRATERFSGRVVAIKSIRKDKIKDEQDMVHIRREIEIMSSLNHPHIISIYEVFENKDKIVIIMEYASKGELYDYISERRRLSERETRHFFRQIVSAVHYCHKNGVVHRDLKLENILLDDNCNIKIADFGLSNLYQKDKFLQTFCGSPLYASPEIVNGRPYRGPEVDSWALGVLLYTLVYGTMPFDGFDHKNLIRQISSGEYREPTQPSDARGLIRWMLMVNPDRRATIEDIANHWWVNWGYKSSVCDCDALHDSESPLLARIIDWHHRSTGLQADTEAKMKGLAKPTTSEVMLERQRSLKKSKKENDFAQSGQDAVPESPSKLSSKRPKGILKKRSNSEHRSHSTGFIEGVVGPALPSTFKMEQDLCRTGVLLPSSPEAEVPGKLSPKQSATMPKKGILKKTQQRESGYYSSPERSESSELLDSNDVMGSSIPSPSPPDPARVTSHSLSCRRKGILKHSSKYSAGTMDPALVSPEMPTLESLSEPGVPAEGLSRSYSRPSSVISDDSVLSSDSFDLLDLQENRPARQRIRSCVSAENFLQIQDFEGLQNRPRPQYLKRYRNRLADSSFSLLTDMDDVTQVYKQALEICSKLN

BTK = BTK (Homo sapiens, UniProt Q06187)
BTK, sequence (Q06187 whole entry, species assumed): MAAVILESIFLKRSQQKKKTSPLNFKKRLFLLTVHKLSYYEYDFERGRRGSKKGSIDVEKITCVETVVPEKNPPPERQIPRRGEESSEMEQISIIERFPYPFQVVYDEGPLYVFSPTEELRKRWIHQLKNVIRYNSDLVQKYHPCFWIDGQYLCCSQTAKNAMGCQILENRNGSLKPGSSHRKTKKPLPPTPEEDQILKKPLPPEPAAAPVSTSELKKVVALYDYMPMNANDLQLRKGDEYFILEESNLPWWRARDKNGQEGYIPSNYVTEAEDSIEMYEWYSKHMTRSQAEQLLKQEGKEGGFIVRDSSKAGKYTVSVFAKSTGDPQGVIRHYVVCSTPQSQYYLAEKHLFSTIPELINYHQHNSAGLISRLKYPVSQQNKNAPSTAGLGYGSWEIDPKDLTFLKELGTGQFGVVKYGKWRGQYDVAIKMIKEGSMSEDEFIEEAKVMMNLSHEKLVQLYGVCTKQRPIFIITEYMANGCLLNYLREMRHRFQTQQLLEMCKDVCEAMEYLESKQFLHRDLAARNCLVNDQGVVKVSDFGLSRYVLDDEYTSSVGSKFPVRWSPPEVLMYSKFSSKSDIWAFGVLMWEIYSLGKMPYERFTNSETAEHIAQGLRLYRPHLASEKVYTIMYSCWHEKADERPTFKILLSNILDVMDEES

PAK5 = PAK5 (Homo sapiens, UniProt Q9P286)
PAK5, sequence (Q9P286 whole entry): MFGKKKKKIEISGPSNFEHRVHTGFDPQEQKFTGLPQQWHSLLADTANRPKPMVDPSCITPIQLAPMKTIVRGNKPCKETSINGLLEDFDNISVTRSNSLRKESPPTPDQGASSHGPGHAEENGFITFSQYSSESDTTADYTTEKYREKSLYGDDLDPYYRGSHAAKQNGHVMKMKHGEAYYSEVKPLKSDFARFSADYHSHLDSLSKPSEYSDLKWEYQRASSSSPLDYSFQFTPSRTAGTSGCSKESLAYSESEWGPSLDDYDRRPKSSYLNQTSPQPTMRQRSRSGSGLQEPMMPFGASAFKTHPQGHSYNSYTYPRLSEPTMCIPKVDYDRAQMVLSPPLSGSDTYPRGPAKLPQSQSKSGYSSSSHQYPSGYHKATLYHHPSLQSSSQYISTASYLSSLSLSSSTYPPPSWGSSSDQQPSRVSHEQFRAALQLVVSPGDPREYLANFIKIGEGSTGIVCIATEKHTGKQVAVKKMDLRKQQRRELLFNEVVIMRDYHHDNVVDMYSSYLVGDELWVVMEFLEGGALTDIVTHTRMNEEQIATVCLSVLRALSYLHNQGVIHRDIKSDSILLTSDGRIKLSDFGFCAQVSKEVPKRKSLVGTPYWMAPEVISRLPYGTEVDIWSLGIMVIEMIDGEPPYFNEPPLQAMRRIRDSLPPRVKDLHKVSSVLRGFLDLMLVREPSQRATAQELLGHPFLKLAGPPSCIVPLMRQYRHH

TTBK1 = TTBK1 (Homo sapiens, UniProt Q5TCY1)
TTBK1, sequence (Q5TCY1 whole entry, species assumed): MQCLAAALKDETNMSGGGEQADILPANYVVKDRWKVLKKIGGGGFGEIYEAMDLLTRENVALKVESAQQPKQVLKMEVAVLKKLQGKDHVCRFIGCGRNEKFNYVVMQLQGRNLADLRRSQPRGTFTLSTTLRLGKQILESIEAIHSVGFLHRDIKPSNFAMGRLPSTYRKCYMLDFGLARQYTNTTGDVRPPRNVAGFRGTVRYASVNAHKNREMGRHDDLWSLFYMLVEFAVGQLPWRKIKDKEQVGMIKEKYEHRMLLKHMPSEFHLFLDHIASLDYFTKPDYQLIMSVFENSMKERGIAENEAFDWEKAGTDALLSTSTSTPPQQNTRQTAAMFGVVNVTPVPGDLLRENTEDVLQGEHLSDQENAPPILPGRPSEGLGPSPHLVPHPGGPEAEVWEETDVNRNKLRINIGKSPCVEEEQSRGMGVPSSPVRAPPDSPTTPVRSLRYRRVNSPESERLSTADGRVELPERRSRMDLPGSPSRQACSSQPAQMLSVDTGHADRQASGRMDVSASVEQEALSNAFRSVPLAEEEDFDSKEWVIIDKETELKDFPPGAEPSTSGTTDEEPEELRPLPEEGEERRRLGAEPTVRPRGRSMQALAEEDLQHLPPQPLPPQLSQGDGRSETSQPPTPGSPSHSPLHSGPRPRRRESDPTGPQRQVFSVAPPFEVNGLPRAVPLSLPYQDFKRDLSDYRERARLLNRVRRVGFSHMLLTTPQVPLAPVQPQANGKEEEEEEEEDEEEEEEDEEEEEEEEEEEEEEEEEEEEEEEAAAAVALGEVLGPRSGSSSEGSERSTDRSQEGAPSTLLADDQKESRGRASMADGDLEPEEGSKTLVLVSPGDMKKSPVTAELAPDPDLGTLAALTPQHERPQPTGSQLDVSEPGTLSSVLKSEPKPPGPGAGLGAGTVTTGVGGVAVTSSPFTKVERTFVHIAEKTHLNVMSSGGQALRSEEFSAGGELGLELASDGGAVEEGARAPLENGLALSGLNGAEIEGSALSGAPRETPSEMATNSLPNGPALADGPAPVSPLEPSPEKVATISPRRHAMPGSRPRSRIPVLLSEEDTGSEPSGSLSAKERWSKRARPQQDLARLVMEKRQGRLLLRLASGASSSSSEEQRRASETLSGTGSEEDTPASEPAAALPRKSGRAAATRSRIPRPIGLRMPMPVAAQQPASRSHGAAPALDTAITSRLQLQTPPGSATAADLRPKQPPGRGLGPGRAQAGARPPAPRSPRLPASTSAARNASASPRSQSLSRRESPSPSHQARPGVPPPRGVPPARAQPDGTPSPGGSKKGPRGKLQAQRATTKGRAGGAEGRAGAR

JNK2 = JNK2 (Homo sapiens, UniProt P45984)
JNK2, sequence (P45984 whole entry, species assumed): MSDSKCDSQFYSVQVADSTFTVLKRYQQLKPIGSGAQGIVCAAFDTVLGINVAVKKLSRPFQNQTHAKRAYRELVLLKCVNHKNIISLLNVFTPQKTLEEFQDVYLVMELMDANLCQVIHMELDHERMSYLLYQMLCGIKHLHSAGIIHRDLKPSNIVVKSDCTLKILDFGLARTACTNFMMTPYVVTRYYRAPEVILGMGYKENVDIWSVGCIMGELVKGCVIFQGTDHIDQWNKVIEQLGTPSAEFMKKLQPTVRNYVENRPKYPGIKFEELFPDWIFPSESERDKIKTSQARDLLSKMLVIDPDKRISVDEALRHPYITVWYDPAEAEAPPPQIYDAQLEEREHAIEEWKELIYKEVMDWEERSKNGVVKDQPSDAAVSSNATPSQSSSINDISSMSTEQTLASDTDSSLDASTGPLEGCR

TESK1 = TESK1 (Homo sapiens, UniProt Q15569)
TESK1, sequence (Q15569 whole entry, species assumed): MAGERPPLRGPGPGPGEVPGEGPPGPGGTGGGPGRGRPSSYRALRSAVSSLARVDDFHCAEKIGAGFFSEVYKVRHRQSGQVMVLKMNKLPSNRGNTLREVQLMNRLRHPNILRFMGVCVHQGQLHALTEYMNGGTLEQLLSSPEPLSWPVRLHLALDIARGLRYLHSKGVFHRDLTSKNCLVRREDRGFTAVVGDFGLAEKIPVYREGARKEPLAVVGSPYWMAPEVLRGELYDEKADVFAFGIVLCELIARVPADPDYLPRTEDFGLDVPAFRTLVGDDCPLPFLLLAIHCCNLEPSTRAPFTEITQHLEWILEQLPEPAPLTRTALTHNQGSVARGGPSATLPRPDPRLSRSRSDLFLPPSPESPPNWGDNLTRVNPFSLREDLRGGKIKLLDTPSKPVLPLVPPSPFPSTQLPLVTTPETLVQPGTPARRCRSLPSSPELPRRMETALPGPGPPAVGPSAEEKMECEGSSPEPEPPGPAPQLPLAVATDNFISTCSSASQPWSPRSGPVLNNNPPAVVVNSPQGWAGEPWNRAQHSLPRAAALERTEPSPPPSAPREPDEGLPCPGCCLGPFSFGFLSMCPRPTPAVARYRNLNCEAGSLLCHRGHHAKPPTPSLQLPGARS

YES1 = YES1 (Homo sapiens, UniProt P07947)
YES1, sequence (P07947 whole entry, species assumed): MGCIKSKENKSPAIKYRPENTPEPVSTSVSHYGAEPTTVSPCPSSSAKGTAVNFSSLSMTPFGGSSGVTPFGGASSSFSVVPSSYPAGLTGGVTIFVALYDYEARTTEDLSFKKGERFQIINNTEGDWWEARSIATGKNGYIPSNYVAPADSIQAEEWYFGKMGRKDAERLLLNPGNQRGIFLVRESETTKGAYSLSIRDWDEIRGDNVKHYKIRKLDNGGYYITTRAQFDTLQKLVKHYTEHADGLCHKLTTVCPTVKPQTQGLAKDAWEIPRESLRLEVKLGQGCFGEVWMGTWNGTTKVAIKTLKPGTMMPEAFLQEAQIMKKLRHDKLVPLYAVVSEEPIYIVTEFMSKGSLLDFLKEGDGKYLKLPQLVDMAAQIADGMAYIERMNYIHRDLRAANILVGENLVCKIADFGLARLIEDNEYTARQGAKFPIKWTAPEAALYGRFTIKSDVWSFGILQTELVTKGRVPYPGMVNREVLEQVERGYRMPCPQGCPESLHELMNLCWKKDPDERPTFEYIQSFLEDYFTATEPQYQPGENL

CHK2 = CHK2 (Homo sapiens, UniProt O96017)
CHK2, sequence (O96017 whole entry, species assumed): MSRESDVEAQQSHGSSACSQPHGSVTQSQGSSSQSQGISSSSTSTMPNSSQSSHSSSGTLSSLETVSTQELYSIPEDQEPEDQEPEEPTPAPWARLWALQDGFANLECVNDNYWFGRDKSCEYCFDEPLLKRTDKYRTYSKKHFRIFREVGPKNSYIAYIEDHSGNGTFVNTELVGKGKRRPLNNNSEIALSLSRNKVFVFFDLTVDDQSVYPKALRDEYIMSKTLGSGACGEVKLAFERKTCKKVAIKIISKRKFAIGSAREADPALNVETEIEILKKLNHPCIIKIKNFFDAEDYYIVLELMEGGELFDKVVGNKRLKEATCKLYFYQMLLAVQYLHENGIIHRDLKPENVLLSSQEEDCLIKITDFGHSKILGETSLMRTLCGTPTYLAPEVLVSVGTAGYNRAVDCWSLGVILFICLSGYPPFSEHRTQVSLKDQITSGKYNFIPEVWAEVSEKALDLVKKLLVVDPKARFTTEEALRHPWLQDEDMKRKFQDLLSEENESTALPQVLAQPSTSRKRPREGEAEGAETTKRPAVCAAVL

Structure (SMILES): NCCCC[C@H](NC(=O)[C@H](CC(=O)O)NC(=O)[C@H](CC(=O)O)NC(=O)[C@H](CC(=O)O)NC(=O)[C@H](CC(=O)O)NC(=O)[C@H](CC(=O)O)NC(=O)[C@@H](CC(=O)O)NC(=O)CCCCCCCn1cnc2c(Br)c(Br)c(Br)c(Br)c21)C(=O)O [TBBI-OcA-(D-Asp)-(L-Asp)5-(L-Lys)-OH] (X1-[dD]DDDDDK-OH)
- remaining activity at 1 µM (PRAK): 74%
- remaining activity at 1 µM (EPH-B2): 113%
- remaining activity at 1 µM (TAK1): 62%
- remaining activity at 1 µM (NUAK1): 58%
- remaining activity at 1 µM (BTK): 80%
- remaining activity at 1 µM (PAK5): 81%
- remaining activity at 1 µM (TTBK1): 90%
- remaining activity at 1 µM (JNK2): 105%
- remaining activity at 1 µM (TESK1): 81%
- remaining activity at 1 µM (YES1): 103%
- remaining activity at 1 µM (CHK2): 101%
